± gives the uncertainty stated by the source.
Assay: amyloid nucleation score (Sup35N fusion, yeast selection) (log enrichment); library NNK2; higher = more nucleation; inactive = no reads after selection
In short: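 Plasmid inserts were Illumina-sequenced at input and output from psi-negative yeast expressing Sup35N fused to peptides of 20 random codons. The yeast were induced with 100 μM copper sulfate for 24 hours and grown 7 days at 30°C on medium lacking adenine and uracil, and sequences with under 100 input reads were excluded. Nucleation score is the DiMSum log enrichment of output over input reads, centred on the mode score of non-aggregating sequences.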

In order of falling amyloid nucleation score:
1. YRSWIGYCSNDVSQTLCTVM  9.164 ± 0.024
2. WWNTGCVGLMCICTLFSGSR  8.985 ± 0.081
3. YNIHYMNVLIGALHL  8.327 ± 0.056
4. YSCFEMSCVGLGDVMIFIVL  8.119 ± 0.037
5. YCYVCDVNVYVYLTAIGNKF  7.43 ± 0.085
6. YSVEYFCHMFSLTCFNKF  7.388 ± 0.057
7. YSLYINLSNAGIGVYPLKPA  7.252 ± 0.062
8. WYYGLTPSQACGGEIPCDFQ  6.523 ± 0.056
9. YRFRAIVNIYRCDVGFF  6.36 ± 0.075
10. YVLRQEVCIIPINSMFVNSF  6.091 ± 0.045
11. YTIAECQSCPQNFLFFH  5.96 ± 0.063
12. YNCCVKISVSM  5.481 ± 0.042
13. WYWHPCTIFL  5.46 ± 0.038
14. YLYSPLVMSSHYMLFT  5.125 ± 0.048
15. YDIVVNYLNHHQR  4.88 ± 0.11
16. YTLDMIIELSLDDGGYVVWG  4.756 ± 0.04
17. YFYPFLCLTKNQLVLSNRRT  4.47 ± 0.073
18. WYTPRLRMLHLAEKGVRVVV  4.31 ± 0.089
19. YILLFSVGICPPRSWLIYCP  4.21 ± 0.11
20. YRISMTAWSGRLSG  4.03 ± 0.043
21. YGMQLFC  3.95 ± 0.082
22. YMKVGFARWMGRPG  3.89 ± 0.06
23. YEGYLVSVQLRRMWDVQLGP  3.79 ± 0.054
24. YNVDVFWYGLKFNDLVVVHF  3.73 ± 0.13
25. YINKKLGEAKGRDLLVRLGQ  3.63 ± 0.07
26. WYHGSASCEYIGYVYPWHAA  3.58 ± 0.064
27. YIGPNKFLKQFDCLINFFLT  3.08 ± 0.097
28. YRVVTSTVKMRLWSRGVYDH  3.07 ± 0.088
29. YIKWQI  2.94 ± 0.065
30. YKWSQASTNGHARISSAQQS  2.46 ± 0.11
31. YGKADCPSLGVYMRL  2.25 ± 0.15
32. YLRDVYSSIFAPGMRYPQTR  2.22 ± 0.094
33. YIRLQAIQSEVERSSVPVIK  2.16 ± 0.083
34. YGLLGFFGMQCCHNLCMYRG  2.02 ± 0.13
35. YCTSRVTTRSFISDCLTWIR  1.97 ± 0.069
36. YAMCTWSV  1.88 ± 0.13
37. YRLFWFNC  1.74 ± 0.11
38. YGILCAKLTAVCL  1.44 ± 0.36
39. YGFENLVSILKFVQVNSKCG  1.38 ± 0.085
40. YFKYNVYIT  1.3 ± 0.23
41. YKTIIRSVMSELSGSLRQSE  1.26 ± 0.11
42. YFELNLNVKRRGGKWYYSLI  1.16 ± 0.27
43. YSGRSAWLMLCGRPVRR  1.11 ± 0.33
44. YMASWVSSAGSFV  1.05 ± 0.29
45. YGGPGRNKGPNSCRSTATSV  1.02 ± 0.17
46. YLLPSVTSVTY  0.993 ± 0.29
47. YSYVIWYMHHCFWLNLRKFM  0.979 ± 0.67
48. YSCRGEVKLKCDTSVGGPRR  0.922 ± 0.2
49. YHVPSGTCATR  0.912 ± 0.58
50. YHMGDGLDVWGRDRSG  0.901 ± 0.27
51. YTVRKNNLVVQESMFLSKCW  0.855 ± 0.12
52. YFLALAYRAVPLLWYRPRGL  0.751 ± 0.38
53. YPCPAVVCSYAA  0.705 ± 0.44
54. YSVGCCLRYYRSN  0.661 ± 0.8
55. YGHLRVWKIPS  0.655 ± 0.65
56. YAVAEGFVASGYWTAYMPLS  0.487 ± 0.62
57. YLSQWLSEWGVQRYVESYAR  0.445 ± 0.29
58. YFYNGWRERARSEQCNHRT  0.441 ± 0.43
59. YRVVKPCWLHFGDLIVWTWC  0.351 ± 0.35
60. YGAWCERLKRFSRLVWSDGR  0.312 ± 0.54
61. YKMILGCVVRVGYRILNCIR  0.295 ± 0.5
62. YPYSSWRGSVHCELGINGMG  0.29 ± 0.77
63. YMTWQFITACMLTCSKSILS  0.264 ± 0.49
64. YLWDTEDYMRMWAKRWEKAR  0.259 ± 0.56
65. YCPDLLHYHL  0.256 ± 0.21
66. YCWMRRMKSLPGNMYVLAT  0.25 ± 0.8
67. YDRKGIQCKRLAGPGQRHRS  0.244 ± 0.39
68. YLQYPYCSSKSFARDDLVKY  0.173 ± 0.79
69. YMVEV  0.171 ± 0.34
70. YMNSSLARISPRGSRCERQ  0.162 ± 0.38
71. YGDCLRLTDSYVSIFTRVPT  0.159 ± 0.3
72. YCHALARLSGFL  0.127 ± 0.27
73. YKLAWARYGCIAVCTMLRFP  0.102 ± 1.1
74. YRHDVWLEE  0.016 ± 0.23
75. YTLFLPTRNLRFLVVYGVLV  0.009 ± 0.61
76. YNVQFTSEIVSE  0.001 ± 0.35
77. YGSDALYWLVWVYV  -0.016 ± 0.48
78. YSQGDGL  -0.038 ± 0.65
79. YFMSRRE  -0.04 ± 0.45
80. YCCGGRIRKSRLINFYVTWS  -0.046 ± 0.5
81. WVYRLMLTMLR  -0.055 ± 0.41
82. YRRCSRGNPGCDLAGFGRVV  -0.08 ± 0.74
83. YNSTR  -0.082 ± 0.63
84. WWHLKTQKSP  -0.09 ± 0.44
85. YLLYGWYTMLALHLALREHI  -0.098 ± 0.79
86. YSYSSFLKVSGLSSDRLGYI  -0.133 ± 0.49
87. YNDSDFWGRVWSTHAPCKAT  -0.134 ± 1.1
88. YSVIRS  -0.171 ± 0.34
89. YCYARD  -0.172 ± 1.1
90. YLVGRYETTVSTKMNKMRCW  -0.175 ± 0.53
91. YSLVLYWMWNCYRNRLDSGF  -0.185 ± 0.63
92. YIKASKMPAEA  -0.216 ± 0.55
93. WYRPTSYRRKHKGDISLDLG  -0.226 ± 1.1
94. YHEIFF  -0.243 ± 0.4
95. YSRGIWCNLDGHERCVSLST  -0.266 ± 1.1
96. WYVYSESRIS  -0.267 ± 0.42
97. YCGLVWVSKYSVTRAFRRNV  -0.297 ± 0.39
98. YFNSLLPLLSPFYRPNIALL  -0.299 ± 0.56
99. YRVRCLHWHLIFDCNKKRSK  -0.331 ± 1.1
100. YKVLTSPRFKEDPFLYGCWI  -0.353 ± 0.53
101. YQGMFKFRRFDNVSVVHAMR  -0.359 ± 0.76
102. YSSGF  -0.384 ± 0.39
103. YAGWVGI  -0.387 ± 1.1
104. YNSVFLRNLRSVGWTKAPLW  -0.387 ± 0.76
105. YFYCRYYMNRWNYYL  -0.396 ± 0.33
106. YIECFTSMQLP  -0.397 ± 0.79
107. YHYDCYHLLTERKQGELVRT  -0.425 ± 0.35
108. YLCYNALNDFD  -0.445 ± 0.41
109. YLNGSSTTVSYRCWAMACSN  -0.448 ± 0.76
110. YASCLSSKLCDEDNPTYW  -0.488 ± 0.39
111. YTAQRLNSTYI  -0.506 ± 1
112. YFGFGKSGDYHHSWKRWLPR  -0.511 ± 0.35
113. WWRNFD  -0.526 ± 0.76
114. WTSLSNVFRLTNMYTRVSKW  -0.55 ± 0.76
115. YSVSVRLA  -0.553 ± 0.63
116. YAPLSTDPYILVHCIRPRLA  -0.558 ± 1
117. YFGSCPREKLGILYKELLVL  -0.563 ± 0.79
118. YIFLIMCRWYSATLIRKTSC  -0.584 ± 0.76
119. YISSKYYWSTVKCFAFNTFH  -0.594 ± 0.42
120. WWKGWARTNNVMRAFVVMFY  -0.655 ± 0.44
121. YIVYCLFDLLTPNKMWLSPQ  -0.661 ± 0.76
122. YENFLLLL  -0.676 ± 0.26
123. YRCLYGRKYVFRIEPIGIVH  -0.676 ± 0.35
124. YEIFGRTNPMMVDKNNAIWV  -0.691 ± 0.42
125. YLIDFRTRWIRISKA  -0.695 ± 0.61
126. WWWPSVWTCRM  -0.716 ± 0.78
127. WTYPLC  -0.744 ± 1.1
128. YFCPVPYLAPVLCRLFKVKL  -0.87 ± 1
129. YSFFIIVSALIGRWAS  -0.894 ± 1.1
130. YFQKGFDVARIHLSFTLVLY  -0.913 ± 1
131. YGSLVYVPAYGEISL  -0.921 ± 0.5
132. YIIGSNEFSEHETDLNGYQT  -0.938 ± 0.62
133. YGMKSRVECVVY  -0.949 ± 0.63
134. YDSLYWCGSWYLGLSWISLR  -0.953 ± 0.62
135. WVPRRSSLCGAILYLGTKSM  -0.965 ± 0.78
136. YAFSCFKSNVFWKGTGNRRG  -0.973 ± 0.63
137. YPKFYIWYYVYRLLALTCVY  -1.03 ± 0.37
138. WYGFFTVLWSKTVRLDFNPM  -1.05 ± 0.54
139. YRYKRLSRRV  -1.09 ± 0.78
140. YLLFHYGFLN  -1.1 ± 0.63
141. YGDSWLFCYVE  -1.12 ± 0.64
142. YRFYSLRMYKFWWLTLTLCL  -1.12 ± 1.1
143. YMMMIDL  -1.26 ± 0.64
144. YLNSYNSC  -1.31 ± 1
145. YIESIAECQSVRVGSIVDCF  -1.33 ± 0.75
146. YRLRMIFSMGMNNYVARWFH  -1.5 ± 1.1
147. YEFCVAFFDRNNCNREP  -1.6 ± 0.75
148. YFSYPC  -1.82 ± 1
149. YCNNYG  -2.65 ± 0.75

In the case of WWKYLVICLWARMALKGFSL, the amyloid nucleation score is reported as “inactive”.
With WYVDSLLWEILSALECCVFM the amyloid nucleation score was “inactive”.
For YADCVYDREPYTV, the amyloid nucleation score was “inactive”.
With YFKFFWNAQMLGCA the amyloid nucleation score was “inactive”.
In the case of YFKRSGLSICRTGKLALGWH, the amyloid nucleation score is reported as “inactive”.
In the case of YGFASFSLYDYYLLVCSMFI, the amyloid nucleation score is reported as “inactive”.
In the case of YGGDLYLIFDLLDRVILL, the amyloid nucleation score is reported as “inactive”.
For YIGVKKNNSMAGAYGGSLAQ, the amyloid nucleation score was “inactive”.
With YIIPGLKFLS the amyloid nucleation score was “inactive”.
In the case of YKYSCFDRG, the amyloid nucleation score is reported as “inactive”.
For YLRCMRSLYSMNLCDAFNAA, the amyloid nucleation score was “inactive”.
With YLYKLFGDDFGDWFLICFFR the amyloid nucleation score was “inactive”.
For YMFAIHELNGEIIGPFTVNP, the amyloid nucleation score was “inactive”.
In the case of YMYLVVCLIVSHDPVSVVEW, the amyloid nucleation score is reported as “inactive”.
For YNSVELYFACLFLAHAVLVY, the amyloid nucleation score was “inactive”.
With YPLCARILLNKDLWDGYLNS the amyloid nucleation score was “inactive”.
In the case of YPNSLYFRPYAFILTEMSHH, the amyloid nucleation score is reported as “inactive”.
In the case of YPPIISRLQY, the amyloid nucleation score is reported as “inactive”.
For YRCFGERIFLHAHRE, the amyloid nucleation score was “inactive”.
In the case of YSIIFWCFKWYLIQGWLECA, the amyloid nucleation score is reported as “inactive”.
For YSYFSYVLRFMCSYLLALTQ, the amyloid nucleation score was “inactive”.
With YSYILSFSSFFYFLRHCIKY the amyloid nucleation score was “inactive”.
In the case of YVIFHSEEMN, the amyloid nucleation score is reported as “inactive”.

Reference: the supplement of paper PMC12042874
